Drawing on article doi:10.1101/2022.06.04.494841, this text covers stoichiometry N (Fe-protein per MoFe-protein) for 1 substance.

Several values for one entry are separate records, joined by “and”; a condition that tells them apart may be missing. Equal entries are not always repeated.

The target of this assay is MoFe-protein (molybdenum iron protein of the MoFe-nitrogenase) from Azotobacter vinelandii (Azotobacter vinelandii) (UniProt P07328). In words: cryo-EM structure.
UniProt P07328, sequence (P07328 whole entry, chain 1 of 2): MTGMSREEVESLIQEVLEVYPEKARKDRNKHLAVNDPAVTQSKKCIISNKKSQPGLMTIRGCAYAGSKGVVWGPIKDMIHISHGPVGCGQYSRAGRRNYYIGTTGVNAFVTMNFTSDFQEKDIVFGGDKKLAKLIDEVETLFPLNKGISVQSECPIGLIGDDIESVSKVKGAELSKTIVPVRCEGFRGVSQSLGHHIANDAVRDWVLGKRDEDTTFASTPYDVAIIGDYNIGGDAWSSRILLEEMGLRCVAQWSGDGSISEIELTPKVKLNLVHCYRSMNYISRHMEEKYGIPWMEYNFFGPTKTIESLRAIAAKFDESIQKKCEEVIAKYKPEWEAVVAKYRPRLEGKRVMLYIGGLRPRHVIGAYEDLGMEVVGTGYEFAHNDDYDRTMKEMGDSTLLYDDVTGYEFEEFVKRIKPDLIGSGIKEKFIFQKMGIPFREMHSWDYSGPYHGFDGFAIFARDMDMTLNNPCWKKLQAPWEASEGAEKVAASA
UniProt P07328, sequence (P07329 whole entry, chain 2 of 2, further chain): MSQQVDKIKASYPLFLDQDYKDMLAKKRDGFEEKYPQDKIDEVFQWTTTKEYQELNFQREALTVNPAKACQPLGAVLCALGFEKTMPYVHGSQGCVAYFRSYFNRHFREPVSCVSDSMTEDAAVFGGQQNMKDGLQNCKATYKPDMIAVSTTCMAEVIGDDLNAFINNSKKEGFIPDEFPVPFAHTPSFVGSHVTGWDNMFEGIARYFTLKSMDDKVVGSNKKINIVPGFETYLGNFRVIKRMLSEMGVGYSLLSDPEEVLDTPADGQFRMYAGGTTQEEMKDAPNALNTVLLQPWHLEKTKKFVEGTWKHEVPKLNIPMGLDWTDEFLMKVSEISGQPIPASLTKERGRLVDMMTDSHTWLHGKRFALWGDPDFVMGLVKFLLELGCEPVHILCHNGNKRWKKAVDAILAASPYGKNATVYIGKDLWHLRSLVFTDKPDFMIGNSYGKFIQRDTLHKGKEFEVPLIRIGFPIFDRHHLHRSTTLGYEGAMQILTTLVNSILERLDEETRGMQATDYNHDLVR

Regarding “Fe-protein (iron protein of the MoFe-nitrogenase) from Azotobacter vinelandii (enzyme)”, the stoichiometry N (Fe-protein per MoFe-protein) was 2 and 1.
